Results reported in paper PMC6926487.

Target: GST-Rac1A, active (GTPγs-bound) (Dictyostelium) (UniProt P34144)
Experiment: pull-down; GST-Rac on glutathione magnetic agarose beads, loaded with GTPγs; Dictyostelium lysate (50 mM Tris HCl pH 8, 100 mM NaCl, 30 mM MgCl2, 0.1% Triton X-100, 1 mM DTT) added for 1 hour at 4°C; immunoblot anti-GFP

- immunoblot quantification of binding to active Rac1 (%): 1.9%
Substance: GFP-WASP (Dictyostelium Wiskott-Aldrich syndrome protein, wild type) (natural protein)
